According to the DeepSol protein solubility set:

Test: soluble on expression in E. coli; label from the status in PepcDB or PDB records

| Sequence | soluble on expression in E. coli |
| --- | --- |
| MQMNSEKFFKLFRVGETVLVEYSGTSRAELLLYYIVNNSKLPIVVDDILDTYYEFYTRLKVAGFDVAPLENVQVIKMGGTKDIGRVIGRLNISKYVISEQEYMEIVSQLKDYPVINPVLGLHKLILLGNTFENINVVKMVSNYVGREERIAFYFVNRNVIEKHSSPILDLLEEVVTSILEITDSGIIIKKSIKDEIAGKIVSPLLNF | soluble |
| MGREVAESCVDTMLMEMVAMYSGRFYANKPELAARRIEAIGYQVGHQLSERYTMERPRFSDHLEAIKFICKDFWSEVFKKQIDNLKTNHRGTFVLQDNKFRWLSRVSIDPSSENETQDPSTPGESKAAQAVSMYLYFPCGIIRGVLSNLGIPCAVSADISSLPTCSFVIRVKA | not soluble |
| AAVEDNHLLIKAVQNEDVDLVQQLLEGGANVNFQEEEGGWTPLHNAVQMSREDIVELLLRHGADPVLRKKNGATPFLLAAIAGSVKLLKLFLSKGADVNECDFYGFTAFMEAAVYGKVKALKFLYKRGANVNLRRKTKEDQERLRKGGATALMDAAEKGHVEVLKILLDEMGADVNACDNMGRNALIHALLSSDDSDVEAITHLLLDHGADVNVRGERGKTPLILAVEKKHLGLVQRLLEQEHIEINDTDSDGKTALLLAVELKLKKIAELLCKRGASTDCGDLV | soluble |
| MAENKQASEGLAEDLIRSMVQTASIELHLKTLVEKRQSEMDNGLIDTNDFNRVNEQIDVLKNLKEELFEVTEQRRQDMRTLFDLFEGKGDKEQWCIVKHAAMAMYTAFEAWQASDNDRLLYQICIEKNAYFIKKITQFTGVPITECASCFSDMMKGAIDDEG | not soluble |
| NVLYENQKQIANQFNKAISQIQESLTTTSTALGKLQDVVNQNAQALNTLVKQLSSNFGAISSVLNDILSRLDKVEAE | soluble |
| MSKSSNSDSQKSLPSPGHPSTGRPDLDLITDPLEEQRLEPQRDSHRSDTRGHPSTGRKSHNSTSAQSSVYNSRTDPENAAMDSDEELRKMMEGFVDDEESDPTYEPP | soluble |
| MSKLKIAVSDSCPDCFTTQRECIYINESRNIDVAAIVLSLNDVTCGKLDEIDATGYGIPVFIATENQERVPAEYLPRISGVFENCESRREFYGRQLETAASHYETQLRPPFFRALVDYVNQGNSAFDCPGHQGGEFFRRHPAGNQFVEYFGEALFRADLCNADVAMGDLLIHEGAPCIAQQHAAKVFNADKTYFVLNGTSSSNKVVLNALLTPGDLVLFDRNNHKSNHHGALLQAGATPVYLETARNPYGFIGGIDAHCFEESYLRELIAEVAPQRAKEARPFRLAVIQLGTYDGTIYNARQVVDKIGHLCDYILFDSAWVGYEQFIPMMADCSPLLLDLNENDPGILVTQSVHKQQAGFSQTSQIHKKDSHIKGQQRYVPHKRMNNAFMMHASTSPFYPLFAALNINAKMHEGVSGRNMWMDCVVNGINARKLILDNCQHIRPFVPELVDGKPWQSYETAQIAVDLRFFQFVPGEHWHSFEGYAENQYFVDPCKLLLTTPGIDARNGEYEAFGVPATILANFLRENGVVPEKCDLNSILFLLTPAEDMAKLQQLVALLVRFEKLLESDAPLAEVLPSIYKQHEERYAGYTLRQLCQEMHDLYARHNVKQLQKEMFRKEHFPRVSMNPQEANYAYLRGEVELVRLPDAEGRIAAEGALPYPPGVLCVVPGEIWGGAVLRYFSALEEGINLLPGFAPELQGVYIEEHDGRKQVWCYVIKPRDAQSTLLKGEKL | soluble |
| SKQESAAPNTPPTSQSPTPSAQFPRNDGDPQALWIFGYGSLVWRPDFAYSDSRVGFVRGYSRRFWQGDTFHRGSDKMPGRVVTLLEDHEGCTWGVAYQVQGEQVSKALKYLNVREAVLGGYDTKEVTFYPQDAPDQPLKALAYVATPQNPGYLGPAPEEAIATQILACRGFSGHNLEYLLRLADFMQLCGPQAQDEHLAAIVDAVGTMLPCFCPTEQALALV | soluble |
| MGSDKIHHHHHHMRLDEYISRDIAWCPGCGNFGIRTALMKALEELNVDPRQVVIVSGIGQAAKMPQYVGVNMFNGLHGRALPVATAIKTTNPNLLVIAESGDGCMYGEGGNHFIHTIRRNPDIVNIVHDNQVYGLTKGQASPTSLKGFKTPVQVDGVILEPFNPLAVAIALDASFVARTFIGDIEFTKDILKEAMKHKGYALVDILQPCVTFNKLNTYEWYRENTYYLKDHDPTDRELAFKRAIETEKLPLGIFYVNKNKETFEELARKGDRTPLYEYEVNFEKLKELIESKKS | not soluble |
| LLTPQYISEAKIYVLSKETTLTSLADLQMGTQLTQDYKELIGSRPVMQEVINTLNLDITYRQLAEKLKLENPKDTRILYLTVTDPNPYMAKAIVDEIANAASDYIGEIMEMTPPKLIEDGMVATVQTSPNVKKN | not soluble |
| MTNLFVRSGISFVDRSEVLTYIGNEMLAKGVVHDTWPQALIAREAEFPTGIMLEQHAIAIPHCEAIHAKSSAIYLLRPTNKVHFQQADDDNDVAVSLVIALIVENPQQQLKLLRCLFGKLQQPDIVETLITLPETQLKEYFTKYVLDSDE | not soluble |
| NLKDVEHVVILMQENRSFDHYFGTLKGVRGFGDRMAIPLPDGQRVWHQKGSKGEILPYHFDTSTTSAQRVDGTPHTWPDAQQAWNEGRMDKWLPAKTERSLGYYKEQDIAFQFAMANAFTICDAYHCSFQGGTNPNRLFLWTGTNDPLGQHGGPVTTNDHDSNGPVEQGYTWTTYPERLQAAGITWRVYQDMADNFSDNPLIGFRQYRAAAPDSPLIVNGLSTWKLDALKRDVLANSLPQVSWIVAPAKYSEHPGPSSPIWGAEYTSWVLDALTANPEVWSKTALLVMFDENDGFFDHVAPPAAPSLNKDGTLRGKTTADATLEWHTKGDIRYRNQPYGLGPRVPMYVISPWSKGGWVNSQVFDHTSVIRFLEQRFGVMEPNISPWRRAVCGDLTSAFNFANPNNEPFPELPDTSQADAIVASQIKLPKPKPPAVAAMPKQEMGIRPARALPYELGVHARYRSGGDALSLTFANTGKAGAVFQVFDLLDSENPPKRYTVGARKRLHDSFQGDASGDYHLEVHGPNGFLRVFRGNLRRDLAERKAPLPEVRIDYEPLFGNLRVQLINRGRHPVKLTVKDNVYRQGERRTVNVPPGQRREVRYSLRSSGNWYDFSVSAQGADSFLRRFSGRMEDGRSGFSDPGMGLGTLTF | not soluble |
| MEGNQAGSSLDSLIASFNKRIGELQELVIARNMYPASTIPDLSAIDTALSSMELQVQSIKDRLREETEAIPKAKKLIEASLKQQGKLQKMSIYAPSHFPDKATMLNSDLNRCLLQENAKQYEQHSTLSSLKFDEEAAVLPKEKKGRGSPPLWYITVEELNSLSSYMRGRLTLEKVNAAINDMASYAEANAHLIAASKQKLAENLWEKALKLRDIVTEQAVKGKHFFLETDMKGPSLKLDNTGKAILTVLRHLGRISETRIGQNRVIILMKPH | soluble |
| MNMVAQQMPSPEEIAAQLQMIRDQIAELQGVLAQLELRLRSVQAAKETVEKAAGQDGETLFPGDPELNTILKARLLEPGKAIVHLGLNVYAKLDTAKATEILAKKEDALKRSLETLKQELDKLSRTHDQYLQLLQALTAGQAAQQAGQQQKQGS | soluble |
| MSLQKEEILKLPISYKNIRLIRLNLPQKEQFVSGIGVRNSRKALIIEWEDDNGTKGYGECSCRPDPYYSDEFIEGAIALVNQFIVPFLKQNQTFGDLLKLLDKIRGWNFTKAAVEMAALQVIEQNTGKSPFQLLQNKPLAHVPVGISLGLYTDVDRMKKVVKNALETGYKRLKFKISPKVRVDFFEEINPMLFEADTFVSFDANGSFGENDLDIFHYFANTYQSMIEQPFAPTRFDILSKVKKEHPEIYICYDEEIKSIGDLIKLHHLGMLDEVNLKVGRVGGVMKSIEIIQYCAEHNIPCWIGGMFETGIGRTLNLRMASYLPNARAHDLSPSDRYFLEDIVQPNVQMNNGLVNMESLKNCTIQPNLIDKYTIDQKTLTRICEGHHHHHH | soluble |
| MGSDKIHHHHHHMTESSDYESVQVFIGVDVGKDTHHAVAINRSGKRLFDKALPNDENKLRSLISDLKQHGQILLVVDQPATIGALPVAVARSEGVLVGYLPGLAMRRIADLHAGEAKTDARDAAIIAEAARTLPHALRTLKLADEQIAELSMLCGFDDDLAAQTTQASNRILGLLTQIHPAPERVLGPRLEHPAVLDLLQRYPSPEKLASLGEKKLAAQLCKLAPRLGKRLAADIAQALAEQTVVVPGTNAAAVVLPRLALQLITLRKQRDEVALEVEQRVLAHPLYPVLTSMPGVGVRTAARLLTEVACRAFASAAHLAAYAGLAPVTRRSGSSIRGEHPSRRGNKALKRALFLSAFTALRDPLSRAYYTRKMSQGKRHNQVLIALARRRCDVLFAMMRDGTFYTPQGS | not soluble |
| MSYYHHHHHHLESTSLYKKAGSENLYFQGARDQGADEAREYEPGQPGMYELEFPAPQLSSSDGRGPVLVHALEGFSDAGHAIRLAAAHLKAALDTELVASFAIDELLDYRSRRPLMTFKTDHFTHSDDPELSLYALRDSIGTPFLLLAGLEPDLKWERFITAVRLLAERLGVRQTIGLGTVPMAVPHTRPITMTAHSNNRELISDFQPSISEIQVPGSASNLLEYRMAQHGHEVVGFTVHVPHYLTQTDYPAAAQALLEQVAKTGSLQLPLAVLAEAAAEVQAKIDEQVQASAEVAQVVAALERQYDAFIDAQENRSLLTRDEDLPSGDELGAEFERFLAQQAEKKSDDDP | soluble |
| GIDPFTGIDPFTGTQACITAASAVSGIIADLDTTIMFATAGTLNREGAETFADHREGILKTAKVLVEDTKVLVQNAAGSQEKLAQAAQSSVATITRLADVVKLGAASLGAEDPETQVVLINAVKDVAKALGDLISATKAAAGKVGDDPAVWQLKNSAKVMVTNVTSLLKTVKAVEDEATKGTRALEATTEHIRQELAVFCSPEPPAKTSTPEDFIRMTKGITMATAKAVAAGNSCRQEDVIATANLSRRAIADMLRACKEAAFHPEVAPDVRLRALHYGRECANGYLELLDHVLLTLQKPNPDLKQQLTGHSKRVAGSVTELIQAAEAMKGT | soluble |
| MGSDKIHHHHHHMKESGNFEFDDVQGLLRFGYGKLADTCFMLLKIADASAARQWLSTAPVSSAIAIHPPPDTALQIAFSVQGLRALGIDESIIDGFSDEFVHGMTRNENCSRRLGDIGHNAPKYWKWGEGADVPHILLLLYARKGGLDAWKATVEGEYFSQAFQLLQYLPTSDMGRTDPFGFEDGISQPAIDWADRHDTDSHANDRYTNLLAAGEMVLGYPNEYGQYTARPLIDLQKDRFAVNLPDAKDDPARKDFGRNGTYLVLRQLEQNVPGFWQFLDKVSDSIPEKRERLAASMVGRERNGTPLIAEHIPGILPKDHGNHFTYDLDPKGNHCPVSAHVRRANPRTGDLPTAVTGTGAIALINRLVKILGFGQKPEEDLIASSRFHRLLRRGRSYGPVLAPGDAVKPDAPAAERGLQFICLVANIGRQFEFVQNAWIVNGKFGGLQEEPDPLLGNREPMINGNSTDHFNRPTSSGSMQKTCHLPQFTTVLGGGYFFMPGLRALKYISALPANGNGGSS | not soluble |
| MSLSSVNCIEQTTEWTACSKSCGMGFSTRVTNRNRQCEMLKQTRLCMVRPCEQEPEQPTDKKGKKCLRTKKSLKAIHLQFKNCTSLHTYKPRFCGVCSDGRCCTPHNTKTIQAEFQCSPGQIVKKPVMVIGTCTCHTNCPKNNEAFLQELELKTTRGKMEGHHHHHH | not soluble |
| MIVPYSVEDILKDGCFLERAEIDRLLDRLRTKKNLILQGPPGTGKTWLAKRLAFALMGQKDDSKVRAVQFHPNLSYEDFVRGWRPTGEGKLSLADGVFMEAIKAASKDPSSKFVVVIEEINRGNPAQIFGELLTLLEAGKRTPNEALELCYPDADGKRRPVHIPENLYVVGTMNIADRSLALVDLALRRRFAFVGLEPRLGQVWRDWVVKECAVDPLEHHHHHH | not soluble |
